Assay results from patent US20190352411A1 (ALLIGATOR BIOSCIENCE, published 2019).

Key:
[1] = biological target: T1, cynomolgus CD137 (ELISA, Example 15) (cynomolgus, UniProt A9YYE7 24-186); assay: ELISA, cynomolgus CD137
T1 construct: Reagent not described; also called cyno CD137

[2] = biological target: T2, cynomolgus CD137 on transfected CHO cells (CHO-cyCD137) (cynomolgus (Macaca fascicularis); human); assay: flow cytometry; EC50 on CHO-cyCD137 against EC50 on CHO-huCD137
T2 construct: extracellular domain;domain: transmembrane and intracellular part; also called cyno CD137
T2 sequence (P25942 other isoform, or with tags, fused parts or gaps): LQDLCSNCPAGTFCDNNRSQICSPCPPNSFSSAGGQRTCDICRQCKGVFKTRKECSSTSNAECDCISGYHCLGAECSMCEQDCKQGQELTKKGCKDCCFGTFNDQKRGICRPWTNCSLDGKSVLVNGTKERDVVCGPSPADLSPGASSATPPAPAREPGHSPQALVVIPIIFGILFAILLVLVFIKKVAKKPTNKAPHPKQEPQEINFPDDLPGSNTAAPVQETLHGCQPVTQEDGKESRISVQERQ
Procedure: (§1) Binding and EC50 was determined using flow cytometric of CHO cells transfected with human CD137, cynomolgus CD137 or empty vector. The extracellular part of human or cynomolgus CD137 was fused to the transmembrane and intracellular part of human CD40 and cloned into pcDNA3.1. The vector was subsequently stably transfected into CHO cells. […] CD137-transfected and empty vector-transfected cells were incubated with CD137 antibodies for at least 1 h at 4° C. to saturate the binding. In order to minimize antibody internalization, 0.05% sodium azide was used in the incubation buffer and all work was performed on ice. The CD137 antibodies were detected using PE-conjugated anti-hIgG antibody (109-115-098, Jackson Immunoresearch laboratories), incubated for 30 min at 4° C. Directly after staining the cells were fixed with a paraformaldehyde solution (10× concentrate BD CellFIX, BD biosciences #340181). Cells were analyzed by flow cytometry using FACSVerse (BD Biosciences). The median fluorescence intensity (MFI) for each sample was determined and the dose response data was analysed using Graph Pad Prism.
(§2) MFI data was normalized for each antibody, where 0% is defined as the lowest value and 100% is the highest value in the dose titration for each antibody.

[3] = biological target: T3, recombinant human CD137-Fc (R&D #838-4B) (human, UniProt Q07011 24-186); assay: ELISA, coated human CD137-Fc
T3 construct: Bought protein coated on ELISA plates; also called CD137 (R&D #838-4B); not shown: Fc part of the commercial fusion protein; not described
T3 sequence (Q07011 24-186 limits assumed): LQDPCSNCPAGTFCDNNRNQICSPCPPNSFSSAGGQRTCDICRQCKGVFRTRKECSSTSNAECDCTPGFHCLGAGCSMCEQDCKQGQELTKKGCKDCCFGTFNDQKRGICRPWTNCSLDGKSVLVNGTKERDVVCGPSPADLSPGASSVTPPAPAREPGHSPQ

[4] = biological target: human CD137 (Acro Biosystems #41B-H5227) (human, UniProt Q07011 24-186); assay: Octet (BLI), antibody amine-coupled to ARG2 biosensor, soluble CD137 as analyte, 1:1 model
Chain of human CD137 (Acro Biosystems #41B-H5227) (Q07011 24-186 limits assumed): as above
Procedure: (§3) Materials and method CD137 affinity was determined using the Octet Red 96 platform (ForteBio). […] 7 2-fold serial dilutions of CD137 (Acro Biosystems #41B-H5227 and #41B-C52H4) from 100 nM was prepared in 1× kinetic buffer (ForteBio #18-1092). Association was measured for 180 s followed by dissociation for 180 s in 1× kinetic buffer. 10 mM Glycine pH 2.2 was used for regeneration.
(§4) Data generated was referenced by reference well subtraction (1188), the baseline was aligned with the y-axis, inter-step correlation by alignment against association was performed and the data was smoothed by a Savitzky-Golay filtering in the data analysis software (v.9.0.0.14). The processed data was fitted using a 1:1 Langmuir binding model with X² as a measurement of fitting accuracy.

[5] = biological target: cynomolgus CD137 (Acro Biosystems #41B-C52H4) (cynomolgus, UniProt A9YYE7 24-186); assay: as above
Chain of cynomolgus CD137 (Acro Biosystems #41B-C52H4) (A9YYE7 entry or part of it): as the sequence (Q07011 24-186 limits assumed) above, with P4L, N19S, R50K, T66I, P67S, F69Y, G75E, V149A counted along it
Procedure: as §3, §4

[6] = biological target: T4, human CD137 on transfected CHO cells (CHO-huCD137) (human); assay: flow cytometry on CHO cells transfected with human CD137, PE anti-hIgG detection, MFI normalised 0-100% for each antibody
T4 construct: domain: transmembrane and intracellular part
T4 sequence (P25942 other isoform, or with tags, fused parts or gaps limits assumed): as the sequence (P25942 other isoform, or with tags, fused parts or gaps) above, with L4P, S19N, K50R, I66T, S67P, Y69F, E75G, A149V counted along it
Procedure: as §1, §2

[7] = biological target: T3, recombinant human CD137-Fc (R&D #838-4B); assay: ELISA, coated CD137 (R&D #838-4B)
[8] = biological target: T5, 1552: Human CD137 with mouse domains 2B, 3A and 3B (aa 64-118) (human; mouse, UniProt P20334 63-117); assay: flow cytometry on transfected 293-F cells, human/mouse CD137 chimera
T5 construct: Human/mouse chimera transiently expressed on FreeStyle 293-F cells
T5 sequence (P20334 other isoform, or with tags, fused parts or gaps limits assumed): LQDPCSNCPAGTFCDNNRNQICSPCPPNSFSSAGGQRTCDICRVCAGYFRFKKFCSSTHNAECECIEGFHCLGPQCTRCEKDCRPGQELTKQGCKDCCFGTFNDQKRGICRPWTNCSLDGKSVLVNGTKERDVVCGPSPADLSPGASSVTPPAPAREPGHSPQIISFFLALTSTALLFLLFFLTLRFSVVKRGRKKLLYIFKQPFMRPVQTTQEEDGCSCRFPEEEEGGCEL
Procedure: (§5) The ability of each antibody to bind to a panel of human/mouse CD137 chimeras expressed on the surface of transfected cells was analyzed by flow cytometry.
(§6) The chimeras were designed by exchanging domains or modules of the human CD137 with the corresponding mouse domain. Genes of CD137 human/mouse chimeras were synthesized (GenScript) and constructs cloned into pcDNA3.1 vector (Invitrogen) and transiently transfected into FreeStyle 293-F cells (Invitrogen). The transfected cells were incubated with CD137 antibodies and control antibodies, followed by incubation with anti-human IgG-PE (Jackson Immunoresearch) for detection and analyzed with FACS Verse (BD Biosciences). Binding to the different chimeric constructs was calculated as relative MFI compared to the binding of the isotype control, followed by normalization to the full-length human CD137 construct to minimize the effect of affinity differences between individual antibodies.

[9] = biological target: T6, 1553: Human CD137 with mouse domains 3A, 3B and 4A (aa 87-133) (human; mouse, UniProt P20334 86-133); assay: as above
T6 construct: domain: domains 3A, 3B and 4A (aa 87-133); Human/mouse chimera transiently expressed on FreeStyle 293-F cells
T6 sequence (P20334 other isoform, or with tags, fused parts or gaps limits assumed): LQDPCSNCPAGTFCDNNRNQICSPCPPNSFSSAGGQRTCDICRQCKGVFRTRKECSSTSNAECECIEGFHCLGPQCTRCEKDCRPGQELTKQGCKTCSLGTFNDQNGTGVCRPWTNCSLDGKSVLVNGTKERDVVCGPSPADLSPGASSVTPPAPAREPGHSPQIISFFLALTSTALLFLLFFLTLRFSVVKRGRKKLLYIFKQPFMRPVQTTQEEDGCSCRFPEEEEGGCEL
Procedure: as §5, §6

[10] = biological target: T7, 1554: Human CD137 with mouse domains 3B, 4A and 4B (aa 97-159) (human; mouse, UniProt P20334 96-159); assay: as above
T7 construct: domain: domains 3B, 4A and 4B (aa 97-159); Human/mouse chimera transiently expressed on FreeStyle 293-F cells
T7 sequence (P20334 other isoform, or with tags, fused parts or gaps limits assumed): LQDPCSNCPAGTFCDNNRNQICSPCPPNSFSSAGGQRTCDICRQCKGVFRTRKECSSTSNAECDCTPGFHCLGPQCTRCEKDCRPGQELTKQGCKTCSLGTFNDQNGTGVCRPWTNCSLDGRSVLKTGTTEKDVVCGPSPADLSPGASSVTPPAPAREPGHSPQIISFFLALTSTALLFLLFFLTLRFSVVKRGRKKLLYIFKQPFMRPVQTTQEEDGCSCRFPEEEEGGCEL
Procedure: as §5, §6

[11] = biological target: T8, 1555: Human CD137 with mouse domains 1 and 4B and region of unknown function (aa 24-46 and aa 139-186) (human; mouse, UniProt P20334 24-45; P20334 139-185); assay: as above
T8 construct: Human/mouse chimera transiently expressed on FreeStyle 293-F cells
T8 sequence (P20334 other isoform, or with tags, fused parts or gaps limits assumed): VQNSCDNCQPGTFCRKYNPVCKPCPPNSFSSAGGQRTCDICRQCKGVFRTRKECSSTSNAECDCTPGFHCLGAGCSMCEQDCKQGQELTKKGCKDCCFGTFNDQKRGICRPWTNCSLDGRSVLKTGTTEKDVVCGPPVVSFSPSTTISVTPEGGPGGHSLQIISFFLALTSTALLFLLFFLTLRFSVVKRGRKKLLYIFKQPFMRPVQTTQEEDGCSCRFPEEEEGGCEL
Procedure: as §5, §6

[12] = biological target: T9, 1550: Human CD137 with mouse domains 1, 2A and 2B (aa 24-86) (human; mouse, UniProt P20334 24-85); assay: as above
T9 construct: domain: domains 1, 2A and 2B (aa 24-86); Human/mouse chimera transiently expressed on FreeStyle 293-F cells; Limits of the human pieces are worked out from the printed aa range
T9 sequence (P20334 other isoform, or with tags, fused parts or gaps limits assumed): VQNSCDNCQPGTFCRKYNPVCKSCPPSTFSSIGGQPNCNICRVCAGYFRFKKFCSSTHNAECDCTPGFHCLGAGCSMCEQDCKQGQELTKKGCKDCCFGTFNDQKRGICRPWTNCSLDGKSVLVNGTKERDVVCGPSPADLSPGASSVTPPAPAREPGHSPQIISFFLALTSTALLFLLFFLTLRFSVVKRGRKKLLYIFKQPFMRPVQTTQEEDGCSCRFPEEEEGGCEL
Procedure: as §5, §6

[13] = biological target: T10, 1551: Human CD137 with mouse domains 2A, 2B and 3A (aa 47-96) (human; mouse, UniProt P20334 46-95); assay: as above
T10 construct: domain: domains 2A, 2B and 3A (aa 47-96); Human/mouse chimera transiently expressed on FreeStyle 293-F cells
T10 sequence (P20334 other isoform, or with tags, fused parts or gaps limits assumed): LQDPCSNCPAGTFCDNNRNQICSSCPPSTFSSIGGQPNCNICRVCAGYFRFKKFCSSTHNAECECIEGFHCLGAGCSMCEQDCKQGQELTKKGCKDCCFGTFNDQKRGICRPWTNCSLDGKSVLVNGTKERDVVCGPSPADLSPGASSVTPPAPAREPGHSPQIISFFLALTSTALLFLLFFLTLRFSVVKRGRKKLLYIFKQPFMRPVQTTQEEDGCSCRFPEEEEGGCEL
Procedure: as §5, §6

T1 sequence (A9YYE7 entry or part of it): as the sequence (Q07011 24-186 limits assumed) above, with P4L, N19S, R50K, T66I, P67S, F69Y, G75E, V149A counted along it

B1: 1630/1631 (antibody, human IgG4 S228P, kappa, V domains shown)
VH: EVQLLESGGGLVQPGGSLRLSCAASGFTFGYSYMSWVRQAPGKGLEWVSSIGSGSSYTYYADSVKGRFTISRDNSKNTLYLQMNSLRAEDTAVYYCARVYSSPGIDYWGQGTLVTVSS
VL: DIQMTQSPSSLSASVGDRVTITCRASQSISSYLNWYQQKPGKAPKLLIYAASSLQSGVPSRFSGSGSGTDFTLTISSLQPEDFATYYCQQYYTWVPFTFGQGTKLEIKR
notes: the format in each assay is not restated
EC50 [1]: 0.85 nM
Ratio, cyno:human [2]: 0.63
EC50 [3]: 0.41 nM
Kd [4]: 14 nM
koff [4]: 0.0023 s⁻¹
kon [4]: 160000 M⁻¹ s⁻¹
Kd [5]: 18 nM
koff [5]: 0.0025 s⁻¹
kon [5]: 140000 M⁻¹ s⁻¹
EC50 (read off the curve) [6]: ~0.2 µg/mL
EC50 [7]: 0.4 nM
MFI antibody/isotype control, normalized to full-length human CD137 [8]: 0.25
MFI antibody/isotype control, normalized to full-length human CD137 [9]: 0.91
MFI antibody/isotype control, normalized to full-length human CD137 [10]: 0.85
MFI antibody/isotype control, normalized to full-length human CD137 [11]: 0.35
MFI antibody/isotype control, normalized to full-length human CD137 [12]: 0.11
MFI antibody/isotype control, normalized to full-length human CD137 [13]: 0.1
